Data reported in article PMC12381655.

Target: PABP (hPABPC1) (human, UniProt P11940 1-636)
Assay: SPR

Sequence of PABP (hPABPC1) (P11940 whole entry): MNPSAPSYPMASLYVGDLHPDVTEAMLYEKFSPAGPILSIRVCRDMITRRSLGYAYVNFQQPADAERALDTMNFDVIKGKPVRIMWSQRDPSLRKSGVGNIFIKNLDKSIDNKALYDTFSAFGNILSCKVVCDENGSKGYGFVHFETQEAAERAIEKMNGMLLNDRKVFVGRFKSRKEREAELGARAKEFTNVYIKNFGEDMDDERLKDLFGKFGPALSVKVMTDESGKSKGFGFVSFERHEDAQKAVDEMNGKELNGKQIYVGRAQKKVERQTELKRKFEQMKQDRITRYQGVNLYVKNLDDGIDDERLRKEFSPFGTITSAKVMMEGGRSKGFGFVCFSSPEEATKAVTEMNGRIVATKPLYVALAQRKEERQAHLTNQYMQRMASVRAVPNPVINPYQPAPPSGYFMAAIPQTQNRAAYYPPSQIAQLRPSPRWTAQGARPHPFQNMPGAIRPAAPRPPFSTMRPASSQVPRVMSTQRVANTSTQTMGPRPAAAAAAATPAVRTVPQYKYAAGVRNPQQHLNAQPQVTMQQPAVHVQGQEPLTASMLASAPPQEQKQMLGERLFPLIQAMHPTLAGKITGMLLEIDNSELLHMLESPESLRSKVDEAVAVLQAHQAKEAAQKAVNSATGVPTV

Row | Binder | binding result
1 | ACUGCGCUGAUUUUUUUUUUUUUUUUUUUUUUUUUUUUUUUUUUUUUUUU (ssRNA) [Biotin-RNA8 (U40)] | no binding
2 | AAAAAAAAAAAAAAAAAAAAAAAA (XNA, 2'-O-methoxyethyl A, about 50% by design (positions in Table S2/Fig. 3A not in material)) [Biotin-RNA5 (A24 2'-MOE)] | no binding
3 | AAAAAAAAAAAAAAAAAAAAAAAA (XNA, 2'-fluoro A, 50% substitution (positions in Table S2/Fig. 3A not in material)) [Biotin-RNA6 (A24 2'-F)] | no binding
4 | AAAAAAAAAAAAAAAAAAAAAAAA (XNA, 2'-O-methyl A, 50% substitution (positions in Table S2/Fig. 3A not in material)) [Biotin-RNA4 (A24 2'-OMe)] | no binding
5 | AAAAAAAAAAAAAAAAAAAAAAAA (XNA, 2'-deoxy A substitutions, about 50% by design (positions in Table S2/Fig. 3A not in material)) [Biotin-RNA3 (A24 DNA)] | no binding
